Assay results from patent US20240350597A1 (UNIVERSITY COLLEGE DUBLIN, published 2024).

Columns and labels:
[1] = target: T1, Transmembrane serine protease 2 (TMPRSS2) (UniProt O15393 106-492); assay: cell-based or functional assay
[2] = target: T1, Transmembrane serine protease 2 …; assay: ratio of second order inhibition rate constants, with A1AT as reference

T1 sequence (O15393 106-492 limits assumed): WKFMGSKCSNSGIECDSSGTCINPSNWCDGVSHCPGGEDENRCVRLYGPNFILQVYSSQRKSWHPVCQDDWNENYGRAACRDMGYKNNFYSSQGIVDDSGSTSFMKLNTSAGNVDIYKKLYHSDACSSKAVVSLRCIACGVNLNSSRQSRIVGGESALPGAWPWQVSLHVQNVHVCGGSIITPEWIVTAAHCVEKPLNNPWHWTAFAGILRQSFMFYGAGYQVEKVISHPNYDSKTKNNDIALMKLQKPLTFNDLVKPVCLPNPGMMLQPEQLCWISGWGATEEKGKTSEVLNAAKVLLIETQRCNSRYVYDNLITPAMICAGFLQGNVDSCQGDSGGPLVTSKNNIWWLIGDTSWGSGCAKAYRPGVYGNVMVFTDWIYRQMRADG

B1: SerpinB3-TMP variant (other)
chain: MNSLSEANTKFMFDLFQQFRKSKENNIFYSPISITSALGMVLLGAKDNTAQQIKKVLHFDQVTENTTGKAATYHVDRSGNVHHQFQKLLTEFNKSTDAYELKIANKLFGEKTYLFLQEYLDAIKKFYQTSVESVDFANAPEESRKKINSWVESQTNEKIKNLIPEGNIGSNTTLVLVNAIYFKGQWEKKFNKEDTKEEKFWPNKNTYKSIQMMRQYTSFHFASLEDVQAKVLEIPYKGKDLSMIVLLPNEIDGLQKLEEKLTAEKLMEWTSLQNMRETRVDLHLPRFKVEESYDLKDTLRTMGMVDIFNGDADLSGMTGSRGLVLSGVLHKAFVEVTEEGAEAAAATAVIQFRVSPTSTNEEFHCNHPFLFFIRQNKTNSILFYGRFSSP
notes: also called SerpinB3 anti-TMPRSS2; modified SerpinB3-TMP
- TMPRSS2 inhibition at a 5:1 serpin:protease ratio (residual activity on Boc-QAR-AMC after 10 min incubation) [1]: 92%
- fold increase in TMPRSS2 specificity (k2) over A1AT [2]: 18 fold
